In patent publication US6297356, “Telomere repeat binding factors and diagnostic and therapeutic use thereof” (The Rockfeller University):

Molecular target: T1, TRF1 (MTRF12) (Mus musculus, UniProt P70371 SEQ:1-421)
T1 sequence: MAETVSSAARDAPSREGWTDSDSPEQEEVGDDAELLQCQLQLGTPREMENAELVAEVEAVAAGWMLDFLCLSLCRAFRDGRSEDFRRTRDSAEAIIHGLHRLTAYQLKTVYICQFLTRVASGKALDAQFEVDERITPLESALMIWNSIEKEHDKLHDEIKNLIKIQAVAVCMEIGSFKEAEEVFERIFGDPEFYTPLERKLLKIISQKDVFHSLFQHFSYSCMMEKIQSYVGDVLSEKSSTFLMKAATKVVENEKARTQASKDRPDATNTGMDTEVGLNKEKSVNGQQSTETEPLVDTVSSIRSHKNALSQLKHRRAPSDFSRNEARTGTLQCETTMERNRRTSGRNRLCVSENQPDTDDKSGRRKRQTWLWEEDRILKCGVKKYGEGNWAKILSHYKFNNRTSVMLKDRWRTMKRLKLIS
Experiment: EMSA; reticulocyte lysate
Settings: chain copies: 2; label: labelled
Text: Figure 6: FIG. 6 depicts a gel-shift experiment showing telomeric repeat binding activity of protein encoded by the mouse MTRF12 cDNA. The cDNA was transcribed using T3 RNA polymerase and translated in a rabbit reticulocyte lysate. The probe is a $(TTAGGG)12$-containing restriction fragment. Competitions were done with plasmids containing long arrays of telomeric DNAs with the indicated sequence. Gel-shift methods are as described by (Zhong et al, 1992). […] Shown is two interphase nuclei in which the anti-FLAG antibodies detect a speckled TRF pattern (green) against the background of DAPI stained DNA (blue). […] Shown is a metaphase spread in which the anti-HA antibody detects TRF at each chromosome end (green). The DNA is stained with DAPI (blue).
The mouse cDNA (MTRF12) contained its own initiator codon and was transcribed and translated without further modification using the T3 promoter in its pBluescript vector. Similar to the human cDNA, a ~60 kD protein was synthesized that bound TTAGGG repeats but not TTGGGG or TTAGGC repeats (FIG. 6).

B1: (TTAGGG)12 restriction fragment (dsDNA)
DNA 1: GTACCCGGGGATCGTGACTCTAGAGGGGCCCTAACCCTAACCCTAACCCTAACCCTAACCCTAACCCTAACCCTAACCCTAACCCTAACCCTAACCCTAACCCTAACCCGGGTCGAATTCGATCTCTAGAGTCGACCTGCAGGCATGC
DNA 2: GCATGCCTGCAGGTCGACTCTAGAGATCGAATTCGACCCGGGTTAGGGTTAGGGTTAGGGTTAGGGTTAGGGTTAGGGTTAGGGTTAGGGTTAGGGTTAGGGTTAGGGTTAGGGTTAGGGCCCCTCTAGAGTCACGATCCCCGGGTAC
B1: binds.
